In general, Kd refers to the free concentration of one partner at which half of the binding sites on the other are occupied at equilibrium, for simple one-to-one binding. Read a high Kd as lower affinity.

What all share (assay): SPR
For orientation: Surface plasmon resonance follows binding to a sensor surface in real time, without labels.

Experiment [1] addresses T1, C-terminal domain of Tai Forest Ebola virus Nucleoprotein (NP^Ct).
Experiment [2] has as its target T2, C-terminal domain of Zaire Ebola virus Nucleoprotein (NP^Ct) (UniProt P18272 641-739).
The target of experiment [3] is T3, C-terminal domain of Bundibugyo Ebola virus Nucleoprotein (NP^Ct).
For experiment [4], the target named is T2, C-terminal domain of Zaire Ebola virus …. This is another data set of the same source.
Experiment [5] has as its target C-terminal domain of Reston Ebola virus Nucleoprotein (NP^Ct) (UniProt Q8JPY1 641-739).
Experiment [6] deals with T1, C-terminal domain of Tai Forest Ebola …. The source holds these as a separate data set.
For experiment [7], the target named is T3, C-terminal domain of Bundibugyo Ebola …. The source holds these as a separate data set.
Experiment [8] addresses C-terminal domain of Sudan Ebola virus Nucleoprotein (NP^Ct) (UniProt Q9QP77 641-738).

Residue numbers refer to the chain shown, from its start. Like-named read-outs stand apart in the source and are kept apart here.

B1: Fab 6 (Fab, V domains shown)
VH: EVQLVESGGGLVQPGGSLRLSCAASGFNVYYYYIHWVRQAPGKGLEWVASISPYYGYTSSYADSVKGRFTISADTSKNTAYLQMNSLRAEDTAVYYCARWSYDQSMSYKSGMDYWGQGTLVTVSS
VL: DIQMTQSPSSLSASVGDRVTITCRASQSVSSAVAWYQQKPGKAPKLLIYSASSLYSGVPSRFSGSRSGTDFTLTISSLQPEDFATYYCQQYSYSLVTFGQGTKVEIKR
B1: the Kd amounted to 4.68 nM in experiment [1], 0.687 nM in experiment [2] and 3.95 nM in experiment [3].

B2: Fab 20 (Fab, V domains shown)
VH: EVQLVESGGGLVQPGGSLRLSCAASGFNISYSSIHWVRQAPGKGLEWVASIYSYSGYTSYADSVKGRFTISADTSKNTAYLQMNSLRAEDTAVYYCARSYWYHVGSWHYTGMDYWGQGTLVTVSS
VL: B1 VL with Y91S, Y93S, V96I
Consider B2, for which the Kd in experiment [4] was 4.14 nM; in experiment [5], 11.7 nM; in experiment [6], 3.05 nM; in experiment [7], 16.6 nM; in experiment [8], 20.3 nM.
